The record followed here is US20140011209, “Aptamers for Prion Diagnostics and Aptamer Binding Detection System” (Aptrix Biosystems LLC, published 2014).

Data set [1] deals with T1, RVV-X (Russell's viper venom factor X activator) (UniProt Q7LZ61;Q4PRD1;Q4PRD2 Q7LZ61:189-619,Q4PRD1:24-146,Q4PRD2:25-158). Nature of the data set: EMSA; room temperature, 1 h. The conditions noted are these: tags: Haematologic Technologies, label: 32P end.
In data set [2] the target is RVV-X (Russell's viper venom factor X activator) (UniProt Q7LZ61;Q4PRD1;Q4PRD2 Q7LZ61:189-619,Q4PRD1:24-146,Q4PRD2:25-158). Description: EMSA. The following applies: tags: Haematologic Technologies; label: 32P end. A general note: Mobility shift assays separate free from complexed probe on a gel.
In data set [3] the target is T1, RVV-X (Russell's viper venom factor X …). Nature of the data set: EMSA; scrambled SEQ 1, negative control. The conditions noted are these: tags: Haematologic Technologies; label: 32P end.
Data set [4] has the same target. Description: EMSA. The following applies: tags: Haematologic Technologies; label: 32P end; three loops, two bulges, three stems.
Data set [5] concerns the target alpha-Thrombin (Homo sapiens, UniProt P00734;P00734 P00734:328-363,P00734:364-622). Description: EMSA. The following applies: tags: Haematologic Technologies; label: 32P end; two loops and two short stems.
The target in data set [6] is T1, RVV-X (Russell's viper venom factor X …). Nature of the data set: EMSA; prion binding component alone. The following applies: tags: Haematologic Technologies; label: 32P end; two loops and two short stems.

B1: 74, 5 from both (ssRNA)
RNA: AAAGCGACCGACCUUUGCCUAAACAGCUGAUGGUUUACAAAGGAA
As a reminder, the Kd is a measure of binding affinity in units of concentration. Lower therefore signals higher affinity. Consider B1, for which the dissociation constant Kd in data set [1] is 426 nM.

B2: SEQ ID NO. 2 (ssRNA)
RNA: AAGGCGAGGUGCGACCCGCACGUGGCAUCUGAUAGCACAUGAAAAGGCACGUCA
Take B2: the equilibrium dissociation constant (Kd) in data set [2] is 23 nM.

B3: 74, 5 from 3' (ssRNA)
RNA: UCCUCAAAGCGACCGACCUUUGCCUAAACAGCUGAUGGUUUACAAAGGAA
In data set [1], B3 returned an equilibrium dissociation constant (Kd) of 352 nM.

B4: 74, 10 from 5' (ssRNA)
RNA: GACCGACCUUUGCCUAAACAGCUGAUGGUUUACAAAGGAAGCACG
For the molecule B4, binding in data set [1] (stem-loop with bulge) was characterised by a dissociation constant (Kd) of 250 nM.

B5: Scrambled SEQ ID NO. 107 (ssRNA)
RNA: GGAGGCCAACUAAUAACGCCAGAACUAUAGGAAUCCCAUGAAGCGAGCGAGAAUU
B5 returned a dissociation constant (Kd) in data set [3] of 131 nM.

B6: 74 alone (ssRNA)
RNA: UCCUCAAAGCGACCGACCUUUGCCUAAACAGCUGAUGGUUUACAAAGGAAGCACG
In data set [2], B6 displayed an equilibrium dissociation constant (Kd) of 75 nM.

B7: SEQ ID NO. 1 (ssRNA)
RNA: UAGCGACAAGGCGACAAGCAAUGACACAUUAACAGACCCUGGUUAGUGAACGAA
With B7, in data set [2], the Kd worked out at 30 nM.

B8: SEQ ID NO. 3 (ssRNA)
RNA: UCUUCCAACGACCAUGCGGCGACAAGCGACUACAAGAGGGUACCCACGGACAGCA
As for B8, in data set [2], binding was put at a Kd of 94.7 nM.

B9: SEQ ID NO. 4 (ssRNA)
RNA: UGGCGACGAGGCGGCAGGCAAUGACACAUUAGCAGACCCUGGUUAAUGAGCGAA
With B9, in data set [2], binding was put at a Kd of 158 nM.

B10: 74, 10 from 3' (ssRNA)
RNA: UCCUCAAAGCGACCGACCUUUGCCUAAACAGCUGAUGGUUUACAA
Consider B10, for which binding in data set [1] was characterised by a dissociation constant (Kd) of 301 nM.

B11: Fus74_10_5 (ssRNA)
RNA: GACCGGGGAGACAAGACUAGACGCUCAACUACGAACUCAUGACACAAGGAUGCAAUCUCAUCCCGACCUUUGCCUAAACAGCUGAUGGUUUACAAAGGAAGCACG
For the molecule B11, in data set [4], the Kd turned out to be 63.9 nM.

B12: SEQ ID NO. 6 (ssRNA)
RNA: UGGCGGAUACUCUGCGAAGGGCGAACCCAACAUUUCGCACAGGACCGACUACUGCA
With B12, in data set [2], binding was characterised by a dissociation constant (Kd) of 19 nM.

B13: B-end (PrPSc binding region) (ssRNA)
RNA: GGGAGACAAGACUAGACGCUCAACUACGAACUCAUGACACAAGGAUGCAAUCUCAUCCCG
Regarding B13, the Kd in data set [5] came out at 4220 nM; in data set [6] it was 170 nM.

B14: 74, 5 from 5' (ssRNA)
RNA: AAAGCGACCGACCUUUGCCUAAACAGCUGAUGGUUUACAAAGGAAGCACG
B14 had a Kd in data set [1] of 374 nM.
